Laboratory results taken from publication PMC12186257, “Serendipitous and Systematic Chemoproteomic Discovery of MBLAC2, HINT1, and NME1‑4 Inhibitors from Histone Deacetylase-Targeting Pharmacophores” (ACS Chemical Biology, 2025).

Substrate: Nc1ncnc2c1ncn2[C@@H]1O[C@H](COP(=O)(O)NCCc2c[nH]c3ccccc23)[C@@H](O)[C@H]1O
Assay: HINT1 enzyme activity assay (TrpA hydrolysis, fluorescence)
Type: biochemical, human
Conditions: other: substrate of hHint1
Description: While the biologically relevant substrates of HINT1 have not been clearly elucidated, the protein has been implicated in opioid receptor signaling, − regulation of the melanoma-associated transcription factor MITF, , and DNA damage repair. These functions position HINT1 as a potential pharmacological target for treating conditions such as opioid resistance or melanoma. The only reported HINT1-targeting pharmacophores are nucleoside-based nonhydrolyzable substrate analogs, such as the carbamate TrpGC (Figure a). , We evaluated the inhibitory potential of KV-24 and KV-30 in enzyme activity assays using recombinant HINT1. […]
Mouse brain proteomics – LC-MS/MS. […] 10 µg of peptide mix was injected and analyzed using a 58 min gradient starting at 1% B up to 45% B (1 h method). […]
Mouse proteomics data analysis. The data files were analyzed with DIA-NN 1.8.1. […] The resulting protein group tables were further analyzed by Perseus 1.6.2.2. […]
CME of transferrin and confocal microscopy analyses.For transferrin uptake experiments HeLa cells were seeded on Matrigel-coated coverslips, and incubated with 0.1 % DMSO, or with 100 µM dynasore, 20 µM KV50, 2 µM KV65, or 2 µM KV79 in media containing 10% FCS at 37°C for 20 h. […] All inhibitor treatments were performed in duplicate, to enable quantification of surface levels of transferrin receptors, and to assess the capability of transferrin receptor endocytosis. […]

B1: recombinant HINT1 (hHint1) (Homo sapiens) (protein)
chain: MADEIAKAQVARPGGDTIFGKIIRKEIPAKIIFEDDRCLAFHDISPQAPTHFLVIPKKHISQISVAEDDDESLLGHLMIVGKKCAADLGLNKGYRMVVNEGSDGGQSVYHVHLHVLGGRQMHWPPG
**Q.** B1 was tested. Which Km did it give?
**A.** Its Km is 0.139 µM.
